Results reported in patent US10689628B2, “Method of making variant LovD polypeptides” (THE REGENTS OF THE UNIVERSITY OF CALIFORNIA, priority 2009, dated 2020).
Residue numbers refer to the chain shown, from its start. In names and notes the source's numbering stands. Several values for one entry are separate records, joined by “and”; a condition that tells them apart may be missing. Identical values can stand only once. Entries after “also recorded” stand apart in the source; their conditions may differ.

Assays:
LovD [1] = target: T1, LovD (Aspergillus terreus, UniProt Q9Y7D1); assay: LovD transacylation of monacolin J with acyl-thioesters / acyl-CoAs (conversion by HPLC); type: biochemical; details: 10 μM LovD, 1 mM monacolin J, 4 mM acyl-thioester, 50 mM HEPES, pH 7.9, 25° C., 10 hours; HPLC 238 nm
T1 construct: made in house; host or cells: E. coli BL21(DE3)/pAW31
T1 sequence (Q9Y7D1 whole entry): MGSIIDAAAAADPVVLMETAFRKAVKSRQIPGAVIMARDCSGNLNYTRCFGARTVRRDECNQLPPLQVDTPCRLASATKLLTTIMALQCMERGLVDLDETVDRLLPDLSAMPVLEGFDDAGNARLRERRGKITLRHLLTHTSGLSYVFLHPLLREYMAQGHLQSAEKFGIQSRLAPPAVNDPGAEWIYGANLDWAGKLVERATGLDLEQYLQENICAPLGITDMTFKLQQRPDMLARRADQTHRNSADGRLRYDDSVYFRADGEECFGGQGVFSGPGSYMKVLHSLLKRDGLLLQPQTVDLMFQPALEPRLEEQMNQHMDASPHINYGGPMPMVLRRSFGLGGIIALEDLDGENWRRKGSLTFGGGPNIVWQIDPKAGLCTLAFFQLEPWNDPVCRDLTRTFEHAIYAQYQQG
Method: Assays were performed with 1 mM monacolin J, 4 mM acyl-CoA and 10 uM LovD for 10 hours.

LovD [2] = target: T1, LovD; assay: Initial velocities of thioester substrates with pure LovD; type: biochemical; details: 1 mM MJ, 4 mM thioester substrate, 10 uM pure LovD, 50 mM HEPES, pH 7.9
Neurospora crassa = assay: Agar diffusion growth inhibition of Neurospora crassa by statins
Method: N. crassa was grown on SDA slants for 10 days and spores were harvested with 1% Tween-80. 100 ml of molten SDA was seeded with 0.3-0.5×10^8 spores and poured into a 230×230 mm plate. Colonies from mutation library were cultured in 96 well plates containing 250 μl LB medium (with 35 mg/L kanamycin). The cells were grown at 37° C. to saturation and transferred to duplicated plates. Protein expression was induced with 0.1 mM IPTG at OD600 of 0.5 and the expression was performed at 25° C. for 16 h. 5 mM MJA and 10 mM DMB-SMMP were added to initiate the reaction. After a certain reaction time (45 mins to 4 hours depending on the activity of the parent), cells were removed with centrifugation (2,000 g, 4° C., 5 min). The amount of supernatant spotted on the SDA plate was typically 1-3 μl. The plates were incubated at 30° C. for 16˜18 hours.
N. crassa was grown on SDA slants for 10 days and spores were harvested with 1% Tween-80. 100 ml of molten SDA was seeded with 0.3-0.5×10^8 spores and poured into a 230×230 mm plate. Colonies from mutation library were cultured in 96 well plates containing 250 μl LB medium (with 35 mg/L kanamycin). The cells were grown at 37° C. to saturation and transferred to duplicated plates. Protein expression was induced with 0.1 mM IPTG at OD600 of 0.5 and the expression was performed at 25° C. for 16 h. 5 mM MJA and 10 mM DMB-SMMP were added to initiate the reaction. […]

[3] = Native gel / SDS-PAGE of LovD proteins (oligomer, insoluble protein); type: physicochemical; details: DTT fixed at 2 mM
Method: FIG. 2. (a) SDS-PAGE gel LovD protein (WT) from E. coli BL21(DE3)/pAW31; (b) native gel of LovD protein (WT) and A1-A8 respectively, DTT was fixed at 2 mM for all samples.
LovD protein was purified to homogeneity by one step Ni-NTA column (FIG. 2a). […] The disulfide bonds between the proteins are spurious for protein crystallization because the monomer and oligomer are different species (see, e.g. Nemoto et al., 2006; J Appl Physiol 100(5):1688-91). One of our purposes was to remove the intermolecular disulfide bonds. By replacing the cysteine residues with alanine, we hope the resultant LovD mutant can keep the acyl-transferase activity while breaking the intermolecular disulfide bonds. […] We reasoned that the solubility of LovD may be changed when the intermolecular disulfide bonds between wild type LovD was eliminated (see, e.g. Lindberg et al., M. 2004; Proc Natl Acad Sci USA 101(45):15893-8).
We ran the native gel of all the mutant proteins together with the wild type LovD protein (FIG. 2b).

MJ acid and DMB-S-MMP = assay: Kinetic assay of LovD wild type and mutants towards MJ acid and DMB-S-MMP; type: biochemical; details: for Km / kcat: DMB-S-MMP fixed at 2 mM, MJ acid 0.25 mM to 2.0 mM
Method: Dimethyl sulfoxide (DMSO) was added to a final concentration of 10% to facilitate the solubilization of DMB-S-MMP. To compare the turnover rate of all mutants and the wild type protein, the MJ acid concentration was set at 1 mM and the DMB-S-MMP was set at 2 mM, the protein concentration was fixed at 10 uM, after the reaction was performed at room temperature for 2 hours, the reaction was quenched by adding EA/2% TFA. The organic phase was dried and redissolved in ACN for HPLC analysis.
The concentration of DMB-S-MMP was fixed at 2 mM and MJ acid concentration was varied from 0.25 mM to 2.0 mM. […] For the rest LovD mutant proteins, we only checked the conversion of one time point.
To obtain KM values for MJA and kcat, the DMB-SMMP concentration was fixed at 2 mM, while the concentration of MJA was varied from 0.25 to 5 mM. To obtain KM values for DMB-SMMP and kcat, the MJA concentration was fixed at 2 mM, while the concentration of DMB-SMMP was varied from 0.5 to 5 mM. Dimethyl sulfoxide (DMSO) was added to a final concentration of 10% to facilitate the solubilization of DMB-SMMP. At different time points of the kinetic assay, an aliquot of the reaction mixture was removed, quenched with 1% TFA and extracted with EA containing 1% acetic acid. The organic phase was separated, dried, resolubilized by acetonitrile (ACN) and analyzed by a Beckman Gold HPLC using a reverse phase C18 column (Alltech Apollo 5μ, 150 mm×4.6 mm) and a linear gradient: 60% ACN in water (0.1% trifluoroacetic acid (TFA)) to 95% ACN in water (0.1% TFA) for 10 min, 1 mL/min. Conversion of MJA to SVA was measured by integration of the peaks at 238 nm.

[4] = Soluble LovD protein expression level (Ni-NTA purification, Bradford assay)
Method: Each mutant was transformed into E. coli YT2 strain and selected by Kanamycin (Kan). The transformant was grown in 500 ml LB-Kan media at 37° C. to OD600 0.4˜0.6, then 0.1 mM IPTG was added to induce protein expression at 20° C. for 16 hours. Cells were collected by centrifugation, resuspended in 30 ml Buffer A (50 mM Tris-HCl, pH 8.0, 2 mM 2 mM EDTA), and lysed by sonication. Cell debris and insoluble proteins were removed by centrifugation (16,000 g, 4° C., 1 h). To the cleared lysate, 2 ml of Ni-NTA resin (Qiagen) was added. Each mutant was purified using a step gradient of buffer A with increasing concentration of imidazole. Pure (>95%) LovD proteins were eluted in buffer A containing 250 mM imidazole, and then buffer exchanged into buffer A without imidazole. Glycerol was added to a final concentration of 10%, the proteins were aliquoted, and flash frozen.
All nine mutants and the wild type LovD proteins were purified at the same time and under the same conditions. The proteins were purified from 50 ml LB culture. LovD was eluted in the last fraction which contains 250 mM imidazole. The concentration of the last fraction was determined by Bradford Assay using BSA as the standard.
Each expression plasmid encoding LovD mutant was transformed into E. coli BL21(DE3). The transformant was cultured in 50 mL LB medium containing 35 mg/L Kan at 37° C. to optical density (OD600) value of 0.4˜0.6. Protein expression was induced with 0.1 mM IPTG and the subsequent expression was performed at 25° C. for 16 h. Cells were collected by centrifugation (2,000 g, 4° C., 15 min), resuspended in 7 mL Buffer A (50 mM Tris-HCl, pH 8.0, 2 mM DTT, 2 mM EDTA), and lysed by sonication. Cell debris and insoluble proteins were removed by centrifugation (20,000 g, 4° C., 1 h). To the cleared cell lysate, 0.5 mL of Ni-NTA resin (Qiagen, Valencia, Calif.) was added to each sample. […] The protein concentrations were qualitatively assessed by SDS-PAGE and quantitatively determined by the Bradford protein assay using bovine serum albumin (BSA) as the standard.

E. coli YT2 [5] = assay: Whole-cell biocatalysis, MJ acid and DMB-S-MMP to simvastatin acid (Example 1)
Method: Whole cell biocatalytic activities based on the conversion from MJ acid and DMB-S-MMP (gray column) and soluble protein expression level comparison between the wild type LovD and the mutants (black column). For the whole cell activity, the LB culture was concentrated 10 times to mimic high density fermentation, 15 mM MJ acid and 18 mM DMB-S-MMP were used to compare the conversion. The conversion based on 8 hours was used to compare the whole cell activity between the wild type LovD and the mutants. The wild type LovD conversion was normalized to 100%, the data points are averaged values of two runs.
The LovD wild type and all mutants were cultured side-by-side for comparison. A single colony of the freshly transformed strains was used to inoculate a 5 ml LB culture supplemented with 35 mg/L kan and grown overnight at 37° C. The next morning, 100 μl of the overnight culture (0.2%) was inoculated into 50 ml LB medium with Kan. When OD600 reached 0.4˜0.6, 0.1 mM IPTG was added to the culture and expression of LovD was performed at 20° C. for 16 hrs. To mimic the high density fermentation conditions, the cells were concentrated 10-fold before addition of substrates. A 14 ml aliquot of the culture was collected by centrifugation (4° C., 4000 g, 10 min). The cell pellet was gently resuspended in 1330 ml of the supernatant, followed by addition of 70 ml of a MJ acid stock solution (300 mM in water) to make final concentration 15 mM. The concentrated culture was then resuspended and separated into seven 200 μl samples, 1 μl of pure DMB-S-MMP was added to each sample (final concentration ˜20 mM). The cultures were then shaken at 300 rpm at room temperature. At each time point, a total extraction was performed by adding 10 μl of 20% SDS to completely lyse the cells, followed by liquid—liquid extraction with 500 μl EA/2% TFA. The organic phase was removed, evaporated, and redissolved in 500 μl ACN for HPLC analysis.
We then tested the in vivo activity of the nine mutants in comparison to the wild type LovD. Both the mutants and the wild type LovD strains were grown in LB media, expressed and concentrated 10 times to mimic the high density fermentation after 16 hours expression at 20° C. Both MJ acid and DMB-S-MMP were added to final 15 mM and 18 mM respectively to start the reaction. At 8 hours, 100 μl sample culture was taken out to check the total conversion from MJ acid to simvastatin acid.

E. coli YT2 [6] = assay: Whole-cell biocatalysis activity of LovD G0 and directed-evolution mutants (SVA synthesis)
Method: Wild type LovD and all mutants were cultured in parallel for comparison. A single colony of the freshly transformed YT2 competent cells was used to inoculate a 5 mL LB culture supplemented with 35 mg/L kanamycin. Following overnight growth at 37° C., 100 μl of the culture was inoculated into 50 mL LB medium supplemented with 35 mg/L kanamycin. When OD600 reached 0.4˜0.6, 0.1 mM IPTG was added to the cultures and expression of all LovD variants was performed at 25° C. for 16 hr. To mimic the high density fermentation conditions, the cells were then concentrated 10-fold before addition of substrates. A 10 ml aliquot of each culture was collected by centrifugation (4° C., 2,000 g, 10 min). The cell pellet was gently resuspended in 1 ml of the medium supernatant, followed by addition of 70 μl of MJA (300 mM stock) to a final concentration of 15 mM. The concentrated culture was then divided into seven 200 μl aliquots and 1 μl of pure DMB-SMMP was added to each sample to a final concentration of 20 mM. The small cultures were then shaken at 300 rpm at 25° C. At each time point, a complete extraction of one culture aliquot was performed by adding 10 μl of 20% SDS for cells lysis, followed by extraction with 500 μl ethyl acetate containing 1% trifluoroacetic acid TFA. The organic phase was removed, evaporated, and redissolved in 500 μl acetonitrile for HPLC analysis. The whole-cell activity was determined by fitting the linear regions of the conversion time course plot.
Parent LovD G0 and all mutants were cultured in parallel for comparison. A single colony of the freshly transformed YT2 competent cells was used to inoculate a 5 mL LB culture supplemented with 35 mg/L kanamycin. Following overnight growth at 37° C., 100 μl of the culture was inoculated into 50 mL LB medium supplemented with 35 mg/L kanamycin. When OD600 reached 0.4˜0.6, 0.1 mM IPTG was added to the cultures and expression of all LovD variants was performed at 25° C. for 16 hr. To mimic the high density fermentation conditions, the cells were then concentrated 10-fold before addition of substrates. A 10 ml aliquot of each culture was collected by centrifugation (4° C., 2,000 g, 10 min). The cell pellet was gently resuspended in 1 ml of the medium supernatant, followed by addition of 70 μl of MJA (300 mM stock) to a final concentration of 15 mM. The concentrated culture was then divided into seven 200 μl aliquots and 1 μl of pure DMB-SMMP was added to each sample to a final concentration of 20 mM. The small cultures were then shaken at 300 rpm at 25° C. At each time point, a complete extraction of one culture aliquot was performed by adding 10 μl of 20% SDS for cells lysis, followed by extraction with 500 μl ethyl acetate containing 1% trifluoroacetic acid TFA. The organic phase was removed, evaporated, and redissolved in 500 μl acetonitrile for HPLC analysis. The whole-cell activity was determined by fitting the linear regions of the conversion time course plot.

## CCCC(=O)SCC(=O)OC
LovD [1]
  Conversion (percent monacolin J converted to the corresponding lovastatin analog): 92%, 6.8

## COC(=O)CSC(=O)c1ccccc1
LovD [1]
  Conversion (percent monacolin J converted to the corresponding lovastatin analog): 70%, 7.6

## CCOC(=O)CCSC(=O)C(C)(C)CC [DMB-S-EMP, dimethylbutyryl-S-ethyl mercaptopropionate]
LovD [2]
  Initial Velocity (ki): 0.70 min⁻¹

## CCC(C)(C)C(=O)SCCCC(=O)OC [DMB-S-MMB, dimethylbutyryl-S-methyl mercaptobutyrate]
LovD [2]
  Initial Velocity (ki): 0.78 min⁻¹

## CCC(C)(C)C(=O)SCCC(=O)O [DMB-S-MPA]
LovD [2]
  Initial Velocity (ki): 0.08 min⁻¹

## CCC(C)(C)C(=O)SCC(=O)OC [DMB-S-MTG, dimethylbutyryl-S-methyl thioglycolate]
LovD [2]
  Initial Velocity (ki): 0.03 min⁻¹

## CCC(C)(C)C(=O)SCCNC(C)=O [DMB-S-NAC, α-dimethylbutyryl-SNAC]
LovD [2]
  Initial Velocity (ki): 0.02 min⁻¹

## C[C@H]1C=C2C=C[C@H](C)[C@H](CC[C@@H](O)C[C@@H](O)CC(=O)O)[C@H]2[C@@H](O)C1 [MJA, monacolin J acid]
Neurospora crassa
  quantity needed to inhibit the growth of N. crassa (in words): hundred milligram quantities

## CCC(C)(C)C(=O)O[C@H]1C[C@@H](C)C=C2C=C[C@H](C)[C@H](CC[C@@H](O)C[C@@H](O)CC(=O)O)[C@H]21 [SVA, simvastatin acid]
Neurospora crassa
  quantity needed to inhibit the growth of N. crassa (in words): sub-microgram quantities

## CCC(C)(C)C(=O)SCC(=O)OC [drawing 22]
LovD [1]
  Conversion (percent monacolin J converted to the corresponding lovastatin analog): 17%, 8.5

B1: A1: LovD C40A mutant (protein, UniProt Q9Y7D1 1-413, looked up, variant C40A)
Monacolin J acid …: MGSIIDAAAAADPVVLMETAFRKAVKSRQIPGAVIMARDASGNLNYTRCFGARTVRRDECNQLPPLQVDTPCRLASATKLLTTIMALQCMERGLVDLDETVDRLLPDLSAMPVLEGFDDAGNARLRERRGKITLRHLLTHTSGLSYVFLHPLLREYMAQGHLQSAEKFGIQSRLAPPAVNDPGAEWIYGANLDWAGKLVERATGLDLEQYLQENICAPLGITDMTFKLQQRPDMLARRADQTHRNSADGRLRYDDSVYFRADGEECFGGQGVFSGPGSYMKVLHSLLKRDGLLLQPQTVDLMFQPALEPRLEEQMNQHMDASPHINYGGPMPMVLRRSFGLGGIIALEDLDGENWRRKGSLTFGGGPNIVWQIDPKAGLCTLAFFQLEPWNDPVCRDLTRTFEHAIYAQYQQG
[3]
  native gel: oligomer / monomer / stability (in words): slightly more monomers; also recorded: slightly less oligomer
MJ acid and DMB-S-MMP
  Km: 680 µM
  kcat: 0.0103 s⁻¹
[4]; purified from 50 ml LB culture, Bradford
  solubility more than the wild type: 28%
E. coli YT2 [5]; based on 8 hours conversion, wild type normalized to 100%
  whole cell activity higher than the wild type: ~25% and 31%

B2: GX12: LovD mutant with six mutations: C40A, C60N, A86V, D12G, G275S and A190T (protein, UniProt Q9Y7D1 1-413, looked up, variant C40A C60N A86V D12G G275S A190T)
Monacolin J acid …: B1 Monacolin J acid … with D12G, C60N, A86V, A190T, G275S
E. coli YT2 [6]; 25° C.
  improvement in whole-cell activity compared to wild type enzyme: 7.5 fold
MJ acid and DMB-S-MMP
  improvement of the kcat/Km value compared to wild type enzyme: 2.83 fold
[4]
  improvement of the soluble expression level compared to wild type enzyme: 2.3 fold

B3: GX27: LovD mutant with eight mutations: C40A, C60N, A86V, D12G, G275S, A190T, H161Y (printed 11161Y) and K26E (protein, UniProt Q9Y7D1 1-413, looked up, variant C40A C60N A86V D12G G275S A190T H161Y K26E)
Monacolin J acid …: B1 Monacolin J acid … with D12G, K26E, C60N, A86V, H161Y, A190T, G275S
E. coli YT2 [6]; 25° C.
  improvement in whole-cell activity compared to wild type enzyme: 11 fold
MJ acid and DMB-S-MMP
  improvement of the kcat/Km value compared to wild type enzyme: 3.45 fold
[4]
  improvement of the soluble expression level compared to wild type enzyme: 4 fold

B4: A3: LovD C60A mutant (protein, UniProt Q9Y7D1 1-413, looked up, variant C60A)
Monacolin J acid …: B1 Monacolin J acid … with A40C, C60A
[3]
  native gel: oligomer / monomer / stability (in words): almost all monomers; also recorded: eliminated most of the oligomer
MJ acid and DMB-S-MMP
  Km: 660 µM
  kcat: 0.0107 s⁻¹
E. coli YT2 [5]; 8 hours conversion, alanine scanning mutants
  whole cell activity compared to the wild type (in words): slightly higher activity

B5: A1N3: LovD double mutant C40A/C60N, starting point (generation zero) of directed evolution (protein, UniProt Q9Y7D1 1-413, looked up, variant C40A C60N)
Monacolin J acid …: B1 Monacolin J acid … with C60N
E. coli YT2 [6]; 25° C.
  whole cell SVA production rate: ~1.7 mM per hour
E. coli YT2 [6]; 32° C.
  whole cell activity when expressed at 32° C. (in words): did not show any activity
E. coli YT2 [6]; normalized to 1 in FIG. 13
  whole-cell conversion rate: 1.7 mM/h
E. coli YT2 [5]; whole cell time course
  faster than the single mutant A1 and N3: about 20%
E. coli YT2 [5]; whole cell, culture concentrated 10 times, 15 mM MJ acid, 18 mM DMB-S-MMP
  time to convert 15 mM MJ acid into simvastatin acid: ~8 h
